Test results reported in publication PMC4401446.
Blank lines part the entries; values can stand above or below the substance they belong to.

Legend:
Assay in all cases: SEC; protein at 500 ug/mL incubated 3 hours at 30°C, then Superdex 75 in 50 mM Tris-HCl pH 8.0, 150 mM NaCl, 5% (v/v) glycerol, calibrated with molecular mass standards; dimer to monomers
[1] = target: human triosephosphate isomerase N15D/N71D double mutant (human)
[2] = target: human triosephosphate isomerase N71D mutant (human)
[3] = target: human triosephosphate isomerase N15D mutant (human)

- stoichiometry N [1]: 2
Substance: human triosephosphate isomerase N15D/N71D double mutant (enzyme)

- stoichiometry N [2]: 2
Substance: human triosephosphate isomerase N71D mutant (enzyme)

- stoichiometry N [3]: 2
Substance: human triosephosphate isomerase N15D mutant (enzyme)
